Results reported in US20110245326, “Post-Transcriptional Regulation Of RNA-Related Processes Using Encoded Protein-Binding RNA Aptamers” (published 2011).

Legend:
[1] = molecular target: T1, Tetracycline repressor protein (TetR) (UniProt P04483 P04483:1-207); experiment: flow; 50 mM Tris pH 8.0, 50 mM KCl, 5 mM MgCl2, room temperature; repression 91% cell-free, 81% yeast; details: tags: N-terminal T7 tag, C-terminal His6 (pET24a); chain copies: 2 (inferred, TetR dimer); label: 3' fluorescein; stem-loop
T1 sequence (P04483 whole entry, one chain of several): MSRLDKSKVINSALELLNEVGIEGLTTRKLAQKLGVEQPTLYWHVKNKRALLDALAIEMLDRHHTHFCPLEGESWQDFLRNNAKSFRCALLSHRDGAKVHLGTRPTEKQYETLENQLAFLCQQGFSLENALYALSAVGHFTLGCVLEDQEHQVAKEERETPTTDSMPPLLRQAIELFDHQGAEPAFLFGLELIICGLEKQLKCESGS
Description: (§1) Quantitative affinity measurements of aptamer interactions with TetR were performed as described previously. Brodsky et al, “A microbead-based system for identifying and characterizing RNA-protein interactions by flow cytometry” Mol Cell Proteomics 1:922-929 (2002); and Warren et al, “A novel binding assay to assess specificity of monoclonal antibodies” J Immunol Methods 305:33-38 (2005). Dynabeads TALON® (Invitrogen) (1 μL) were washed with Affinity Binding Buffer (ABB) (BB+10 μg/mL BSA) and centrifuged at 250×g for 2 mins. Beads were resuspended in ABB and incubated with 60 μg of purified His₆-tagged TetR for 1 h at room temperature. TetR-coated beads were washed twice and resuspended in ABB. Beads were counted by microscopy, and 70,000 beads were placed per well in a 96-well microplate. Fluorescein-labeled RNA in ABB was added to the beads. […] The median fluorescence intensities of the samples were plotted against RNA or DNA concentration using GraphPad Prism® 5 (GraphPad Software, Inc.).
(§2) This example presents a data summary of the various constructs tested for TetR-aptamer binding, cell-free translation, and yeast in vivo expression experiments. Translational repression is reported as the luminescence intensity of the uninduced condition relative to the induced condition. The binding of RNA aptamers to TetR was measured by flow cytometry. […]

[2] = molecular target: T1, Tetracycline repressor protein (TetR); experiment: flow; binding listed as NS; no translation repression; details: tags: N-terminal T7 tag, C-terminal His6 (pET24a); chain copies: 2 (inferred, TetR dimer); label: 3' fluorescein
Description: as §1, §2

[3] = molecular target: T1, Tetracycline repressor protein (TetR); experiment: flow; 50 mM Tris pH 8.0, 50 mM KCl, 5 mM MgCl2, room temperature; repression 56% cell-free, 75% yeast; details: tags: N-terminal T7 tag, C-terminal His6 (pET24a); chain copies: 2 (inferred, TetR dimer); label: 3' fluorescein
Description: as §1, §2

[4] = molecular target: T1, Tetracycline repressor protein (TetR); experiment: flow; 50 mM Tris pH 8.0, 50 mM KCl, 5 mM MgCl2, room temperature; no significant translation repression; details: tags: N-terminal T7 tag, C-terminal His6 (pET24a); chain copies: 2 (inferred, TetR dimer); label: 3' fluorescein
Description: as §1, §2

[5] = molecular target: T1, Tetracycline repressor protein (TetR); experiment: flow; IRE does not bind TetR with high affinity; no translation repression; details: tags: N-terminal T7 tag, C-terminal His6 (pET24a); chain copies: 2 (inferred, TetR dimer); hairpin
Description: Quantitative affinity measurements of aptamer interactions with TetR were performed as described previously. Brodsky et al, “A microbead-based system for identifying and characterizing RNA-protein interactions by flow cytometry” Mol Cell Proteomics 1:922-929 (2002); and Warren et al, “A novel binding assay to assess specificity of monoclonal antibodies” J Immunol Methods 305:33-38 (2005). Dynabeads TALON® (Invitrogen) (1 μL) were washed with Affinity Binding Buffer (ABB) (BB+10 μg/mL BSA) and centrifuged at 250×g for 2 mins. Beads were resuspended in ABB and incubated with 60 μg of purified His₆-tagged TetR for 1 h at room temperature. TetR-coated beads were washed twice and resuspended in ABB. Beads were counted by microscopy, and 70,000 beads were placed per well in a 96-well microplate. Fluorescein-labeled RNA in ABB was added to the beads. Nonspecific RNA interactions were reduced by adding 10 μg/mL yeast tRNA. The binding reaction proceeded with moderate shaking for 4 h at room temperature. […] The median fluorescence intensities of the samples were plotted against RNA or DNA concentration using GraphPad Prism® 5 (GraphPad Software, Inc.).
Several aptamers, but not the iron-responsive element, bind TetR with high affinity. […] Reporter expression was measured in a rabbit reticulocyte cell-free system or in S. cerevisiae in the presence and absence of the inducer aTc.

[6] = molecular target: T1, Tetracycline repressor protein (TetR); experiment: flow; 50 mM Tris pH 8.0, 50 mM KCl, 5 mM MgCl2, room temperature; repression NS cell-free, 9% yeast; details: tags: N-terminal T7 tag, C-terminal His6 (pET24a); chain copies: 2 (inferred, TetR dimer); label: 3' fluorescein
Description: as §1, §2

B1: 5-1.2 (ssRNA)
RNA: GGAUCCAGGCAGAGAAAGGUCGAUACGGACGGAAUGUGAUGGCCUGGAUCC
- Kd [1]: 1.6 nM

B2: 5-1.2m2 (ssRNA)
RNA: GGAUCCAGGCAGUGUAAGGUCGAUACGGACGGAAUGUGAUGGCCUGGAUCC
- binding result [2]: no binding

B3: 5-1.13 (ssRNA)
RNA: GGGAGCUCAGAAUAAACGCUCAACUCCUGUAGUGAAGGCAGAGAAAGGUCGAUACGGACGGAAUGUGAUGGCCUUCGACAUCAGGCCCGGAUCCGGC
- Kd [3]: 0.37 nM

B4: 5-29.13a (ssRNA)
RNA: GGGAGCUCAGAAUAAACGCUCAACUUGCUGCAGAGGGUCGAGAAUAUGUGUGACACUGCGUCGACGGGUUAAGUUCGACAUCAGGCCCGGAUCCGGC
- Kd [4]: 2.77 nM

B5: Iron Responsive Element (IRE) (ssRNA)
RNA: CUUAAGCUUCAACAGUGCUUGAACUUAAG
- binding result [5]: no binding

B6: 5-14.7b (ssRNA)
RNA: GGGAGCUGAGAAUAAACGCUCAACAGGAAACAGCAAGACAAACGAUGGGGAGCGUAAGACUGCGAGUGUCGGAUUCGACAUCAGGCCCGGAUCCGGC
- Kd [4]: 1.44 nM

B7: 5-18.13 (ssRNA)
RNA: GGGAGCUGAGAAUAAACGCUCAAUAGGGAGAGAACUGUGUCAGAAUGUAGUGAACCAGACACGGAGUGGAGUAUUCGACAUCAGGCCCGGAUCCGGC
- Kd [6]: 0.45 nM
